According to the supplement of paper PMC10567573:

B1: INTS3 (parent)
chain: DLNSKGKKREFRFHPIKETVVEEP

Variants of: B1
Assay: protein stability index of a GFP-peptide fusion (GPS, HEK-293T) (PSI 1-6); higher = more stable
Conditions: c terminus: a fixed tail appended
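Note: lentivirally expressed fusions sorted by FACS into six bins by GFP to DsRed ratio, PSI derived from sequencing read proportions per bin multiplied by bin number.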

| Variant | protein stability index |
| --- | --- |
| E22P | 1.96 |
| E22D | 2.07 |
| E22L | 1.91 |
| E22Q | 1.64 |
| E22W | 2.11 |
| E22V | 1.69 |
| E22N | 1.69 |
| E22R | 1.75 |
| E22S | 1.92 |
| E22F | 2.01 |
| E22I | 2.21 |
| E22C | 2.06 |
| E22G | 1.79 |
| E22A | 2.22 |
| E22H | 1.91 |
| E22M | 1.57 |
| E22K | 2.1 |
| E22T | 1.79 |
| E22Y | 1.87 |
| V21E | 3.15 |
| V21H | 2.12 |
| V21I | 1.99 |
| V21R | 1.6 |
| V21W | 1.64 |
| V21T | 2.62 |
| V21K | 2.01 |

| Variant | protein stability index |
| --- | --- |
| V21Q | 2.06 |
| V21A | 2.01 |
| V21G | 1.97 |
| V21P | 2.22 |
| V21N | 2.36 |
| V21M | 2.08 |
| V21F | 1.96 |
| V21S | 2.1 |
| V21L | 2.54 |
| V21Y | 2 |
| V21C | 2.49 |
| V21D | 2.71 |
| P15T | 2.96 |
| P15S | 2.37 |
| P15W | 2.28 |
| P15V | 3.25 |
| P15R | 2.9 |
| P15Y | 2.74 |
| K17H | 2.31 |
| K17S | 3.25 |
| K17W | 1.8 |
| K17G | 2.91 |
| K17I | 1.94 |
| K17M | 2.69 |
| K17C | 2.67 |
| K17P | 1.98 |

| Variant | protein stability index |
| --- | --- |
| K17A | 2.5 |
| K17R | 1.69 |
| K17L | 3.26 |
| K17Y | 2 |
| K17F | 2.05 |
| K17D | 3.93 |
| K17T | 2.77 |
| K17V | 2.69 |
| K17Q | 3.01 |
| K17N | 2.6 |
| K17E | 3.48 |
| E23Y | 1.71 |
| E23N | 1.73 |
| E23F | 1.71 |
| E23V | 2.25 |
| E23G | 2.13 |
| E23T | 2.24 |
| E23D | 2.45 |
| E23C | 3.71 |
| E23H | 1.99 |
| E23S | 1.58 |
| E23W | 1.48 |
| E23I | 2.24 |
| E23Q | 2.35 |
| E23P | 2.36 |
| E23R | 2.04 |

| Variant | protein stability index |
| --- | --- |
| E23L | 2.19 |
| E23K | 2.27 |
| E23A | 1.81 |
| E23M | 2.02 |
| P24C | 2.54 |
| P24E | 2.6 |
| P24H | 2.36 |
| P24W | 2.84 |
| P24D | 2.4 |
| P24S | 2.22 |
| P24V | 2.46 |
| P24A | 2.2 |
| P24L | 2.35 |
| P24G | 2.25 |
| P24Y | 2.32 |
| P24F | 2.81 |
| P24R | 2.19 |
| P24I | 1.68 |
| P24T | 2.38 |
| P24Q | 2.03 |
| P24M | 1.92 |
| P24N | 2 |
| P24K | 2.08 |
| V20K | 2.16 |
| V20P | 2.73 |
| V20W | 3.44 |

| Variant | protein stability index |
| --- | --- |
| V20Y | 1.92 |
| V20S | 2.07 |
| V20H | 2.6 |
| V20T | 2.09 |
| V20D | 2.87 |
| V20C | 2.29 |
| V20I | 1.97 |
| V20G | 2.07 |
| V20R | 1.77 |
| V20A | 2.3 |
| V20F | 1.9 |
| V20L | 1.99 |
| V20E | 2.54 |
| V20N | 2.37 |
| V20Q | 2.65 |
| V20M | 2.25 |
| E18S | 1.94 |
| E18G | 2.1 |
| E18T | 2.7 |
| E18H | 2.13 |
| E18N | 1.63 |
| E18V | 1.86 |
| E18D | 2.68 |
| E18P | 2.19 |
| E18F | 2.1 |
| E18L | 2.83 |

| Variant | protein stability index |
| --- | --- |
| E18M | 2.28 |
| E18Y | 2.41 |
| E18R | 1.87 |
| E18Q | 1.58 |
| E18I | 1.96 |
| E18K | 1.79 |
| E18W | 2.75 |
| E18A | 2.42 |
| E18C | 2.48 |
| T19L | 2.74 |
| T19W | 2.05 |
| T19R | 2.04 |
| T19A | 2.07 |
| T19F | 2.2 |
| T19Y | 1.92 |
| T19P | 1.74 |
| T19D | 2.87 |
| T19C | 2.34 |
| T19S | 2.12 |
| T19N | 2.31 |
| T19K | 2 |
| T19E | 2.29 |
| T19I | 1.94 |
| T19M | 2.31 |
| T19G | 2.62 |
| T19Q | 1.96 |

| Variant | protein stability index |
| --- | --- |
| T19V | 1.86 |
| T19H | 2.42 |
| I16E | 2.96 |
| I16R | 1.77 |
| I16D | 3.02 |
| I16M | 2.79 |
| I16W | 2.12 |
| I16A | 2.06 |
| I16S | 1.99 |
| I16L | 2.24 |
| I16K | 2.21 |
| I16N | 3.04 |
| I16P | 2.28 |
| I16C | 1.84 |
| I16V | 2.71 |
| I16G | 2.29 |
| I16T | 2.12 |
| I16H | 2.31 |
| I16F | 1.88 |
| I16Y | 2.36 |
| I16Q | 2.34 |
